Measured values as given in PMC9204313.

Assays:
Human fibrinogen (human) = Human fibrinogen (human) (UniProt P02671); assay: BLI; Octet K2; CEP-BSA or fibrinogen amine-coupled to AR2G biosensor; active αD I-domain 50-1000 nM in the mobile phase; 20 mM HEPES, 150 mM NaCl, 1 mM CaCl2, 1 mM MgCl2, 0.02% Tween-20, 0.02% BSA, pH 7.5; KD from a plot of response at equilibrium against concentration
[1] = target: CEP-BSA (21:1 molar ratio) (bovine (from the name BSA)) (UniProt P02769); assay: as above

Sequence of UniProt P02671 (P02671 36-866, chain 1 of 3): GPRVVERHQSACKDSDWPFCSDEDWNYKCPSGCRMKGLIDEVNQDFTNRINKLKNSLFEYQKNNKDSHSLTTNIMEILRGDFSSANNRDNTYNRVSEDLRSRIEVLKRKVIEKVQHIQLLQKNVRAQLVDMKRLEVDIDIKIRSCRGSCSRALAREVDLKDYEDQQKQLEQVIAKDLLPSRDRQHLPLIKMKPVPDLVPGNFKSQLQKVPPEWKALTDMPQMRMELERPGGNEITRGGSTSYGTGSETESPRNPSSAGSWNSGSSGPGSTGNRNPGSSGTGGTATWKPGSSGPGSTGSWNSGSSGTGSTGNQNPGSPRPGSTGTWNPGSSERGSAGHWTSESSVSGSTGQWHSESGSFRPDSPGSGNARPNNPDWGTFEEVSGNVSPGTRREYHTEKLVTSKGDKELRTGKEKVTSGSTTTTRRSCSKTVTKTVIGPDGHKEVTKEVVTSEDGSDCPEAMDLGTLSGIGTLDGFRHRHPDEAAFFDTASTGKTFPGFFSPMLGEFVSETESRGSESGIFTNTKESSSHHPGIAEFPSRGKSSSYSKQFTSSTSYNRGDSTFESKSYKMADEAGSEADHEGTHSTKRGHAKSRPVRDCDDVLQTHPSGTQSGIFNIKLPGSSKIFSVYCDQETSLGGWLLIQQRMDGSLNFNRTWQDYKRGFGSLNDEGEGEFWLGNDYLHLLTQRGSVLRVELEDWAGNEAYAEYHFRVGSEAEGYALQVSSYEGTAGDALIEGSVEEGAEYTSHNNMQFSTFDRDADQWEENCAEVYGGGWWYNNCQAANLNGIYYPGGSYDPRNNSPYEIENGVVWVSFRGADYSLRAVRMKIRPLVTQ
Sequence of UniProt P02671 (P02675 45-491, chain 2 of 3, further chain): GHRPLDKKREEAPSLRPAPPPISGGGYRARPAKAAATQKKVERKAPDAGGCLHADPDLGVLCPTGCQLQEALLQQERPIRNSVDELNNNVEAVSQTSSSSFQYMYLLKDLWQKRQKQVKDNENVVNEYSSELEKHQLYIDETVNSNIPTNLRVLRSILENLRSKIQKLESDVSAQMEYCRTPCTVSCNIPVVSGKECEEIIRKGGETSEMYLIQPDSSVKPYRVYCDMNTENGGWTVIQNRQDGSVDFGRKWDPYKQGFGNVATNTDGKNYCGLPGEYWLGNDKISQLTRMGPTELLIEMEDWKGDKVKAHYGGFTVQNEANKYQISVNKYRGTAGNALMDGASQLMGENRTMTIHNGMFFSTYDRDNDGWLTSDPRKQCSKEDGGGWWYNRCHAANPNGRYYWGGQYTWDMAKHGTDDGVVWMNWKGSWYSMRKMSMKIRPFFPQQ
Sequence of UniProt P02671 (P02679 27-453, chain 3 of 3, further chain): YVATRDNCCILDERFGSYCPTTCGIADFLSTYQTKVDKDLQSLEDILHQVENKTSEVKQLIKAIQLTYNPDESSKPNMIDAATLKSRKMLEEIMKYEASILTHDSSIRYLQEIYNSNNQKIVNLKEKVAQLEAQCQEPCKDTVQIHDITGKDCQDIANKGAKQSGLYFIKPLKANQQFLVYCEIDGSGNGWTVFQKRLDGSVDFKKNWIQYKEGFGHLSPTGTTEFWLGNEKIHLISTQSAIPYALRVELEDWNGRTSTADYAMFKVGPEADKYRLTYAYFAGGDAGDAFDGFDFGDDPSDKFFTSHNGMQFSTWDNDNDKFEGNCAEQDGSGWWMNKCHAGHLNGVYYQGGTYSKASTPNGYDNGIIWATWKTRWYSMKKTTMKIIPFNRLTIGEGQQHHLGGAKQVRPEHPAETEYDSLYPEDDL

recombinant αD I-domain in an active conformation (domain or fragment)
Kd (Human fibrinogen (human)): 220 nM | Kd [1]: 100 nM
